In the supplement of paper PMC10567573:

B1: KLHL12 (parent)
chain: SMTTPRCYVGATVLRGRLYAIAGY
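Note: lentivirally expressed fusions sorted by FACS into six bins by GFP to DsRed ratio, PSI derived from sequencing read proportions per bin multiplied by bin number.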

Variants of: B1
Test: protein stability index of a GFP-peptide fusion (GPS, HEK-293T) (PSI 1-6); higher = more stable
Conditions: c terminus: a fixed tail appended
With NMTTPRCYVGATVLRGRLYAIAGY [S1N] the protein stability index was 1.9. CMTTPRCYVGATVLRGRLYAIAGY [S1C] showed a protein stability index of 3.04. Variant FMTTPRCYVGATVLRGRLYAIAGY [S1F] has a protein stability index of 2.24. Work on QMTTPRCYVGATVLRGRLYAIAGY [S1Q] yielded a protein stability index of 1.39. SMTTSRCYVGATVLRGRLYAIAGY [P5S] gave a protein stability index of 3.27. SMTTQRCYVGATVLRGRLYAIAGY [P5Q] gave a protein stability index of 2.71. Work on SMTTTRCYVGATVLRGRLYAIAGY [P5T] yielded a protein stability index of 2.22. Variant SMTTMRCYVGATVLRGRLYAIAGY [P5M] has a protein stability index of 2.98. For SMTTWRCYVGATVLRGRLYAIAGY [P5W], the protein stability index was 2.99. For SMTTYRCYVGATVLRGRLYAIAGY [P5Y], the protein stability index was 2.19. SMTTIRCYVGATVLRGRLYAIAGY [P5I] showed a protein stability index of 1.79. With SMTTNRCYVGATVLRGRLYAIAGY [P5N] the protein stability index was 2.22. In the case of SMTTRRCYVGATVLRGRLYAIAGY [P5R], the protein stability index is reported as 4.23. SMTTHRCYVGATVLRGRLYAIAGY [P5H] showed a protein stability index of 4.85. For SMTTPRCYVTATVLRGRLYAIAGY [G10T], the protein stability index was 3.52. With SMTTPRCYVCATVLRGRLYAIAGY [G10C] the protein stability index was 2.8. Work on SMTTPRCYVFATVLRGRLYAIAGY [G10F] yielded a protein stability index of 1.36. Variant SMTTPRCYVAATVLRGRLYAIAGY [G10A] has a protein stability index of 1.29. Variant SMTTPRCYVDATVLRGRLYAIAGY [G10D] has a protein stability index of 1.1. Work on SMTTPRCYVEATVLRGRLYAIAGY [G10E] yielded a protein stability index of 3.01. Work on SMTTPRCYVSATVLRGRLYAIAGY [G10S] yielded a protein stability index of 1.02. Variant SMTTPRCYVKATVLRGRLYAIAGY [G10K] has a protein stability index of 2.11. Work on SMTTPRCYVIATVLRGRLYAIAGY [G10I] yielded a protein stability index of 2.94. In the case of SMTTPRCYVYATVLRGRLYAIAGY [G10Y], the protein stability index is reported as 2.21. With SMTTPRCYVLATVLRGRLYAIAGY [G10L] the protein stability index was 2.13. Work on SMTTPRCYVMATVLRGRLYAIAGY [G10M] yielded a protein stability index of 2.75. In the case of SMTTPRCYVWATVLRGRLYAIAGY [G10W], the protein stability index is reported as 1.11. Variant SMTTPRCYVNATVLRGRLYAIAGY [G10N] has a protein stability index of 1.95. Work on SMTTPRCYVHATVLRGRLYAIAGY [G10H] yielded a protein stability index of 1.85. SMTTPRCYVPATVLRGRLYAIAGY [G10P] gave a protein stability index of 1.91. For SMTTPRQYVGATVLRGRLYAIAGY [C7Q], the protein stability index was 1.71. For SMTTPRNYVGATVLRGRLYAIAGY [C7N], the protein stability index was 1.62. Variant SMTTPRHYVGATVLRGRLYAIAGY [C7H] has a protein stability index of 1.16. SMTTPRVYVGATVLRGRLYAIAGY [C7V] gave a protein stability index of 2.13. SMTTPRFYVGATVLRGRLYAIAGY [C7F] showed a protein stability index of 3.95. With SMTTPRLYVGATVLRGRLYAIAGY [C7L] the protein stability index was 3.82. Work on SMTTPRTYVGATVLRGRLYAIAGY [C7T] yielded a protein stability index of 2.16. For SMTTPRDYVGATVLRGRLYAIAGY [C7D], the protein stability index was 2.41. Variant SMTTPRMYVGATVLRGRLYAIAGY [C7M] has a protein stability index of 4.32. Variant SMTTPRKYVGATVLRGRLYAIAGY [C7K] has a protein stability index of 2.18. SMTTPREYVGATVLRGRLYAIAGY [C7E] gave a protein stability index of 1.47. SMTTPRAYVGATVLRGRLYAIAGY [C7A] showed a protein stability index of 1.32. SMTTPRIYVGATVLRGRLYAIAGY [C7I] gave a protein stability index of 3.84. With SMTTPRPYVGATVLRGRLYAIAGY [C7P] the protein stability index was 1.06. Variant SMTTPRSYVGATVLRGRLYAIAGY [C7S] has a protein stability index of 3.15. Work on SMTTPRGYVGATVLRGRLYAIAGY [C7G] yielded a protein stability index of 3.82. For SMTTPRRYVGATVLRGRLYAIAGY [C7R], the protein stability index was 2.43. SMTTPRCYVGETVLRGRLYAIAGY [A11E] gave a protein stability index of 1.5. In the case of SMTTPRCYVGGTVLRGRLYAIAGY [A11G], the protein stability index is reported as 1.33. In the case of SMTTPRCYVGPTVLRGRLYAIAGY [A11P], the protein stability index is reported as 2.17. SMTTPRCYVGDTVLRGRLYAIAGY [A11D] gave a protein stability index of 1.42. SMTTPRCYVGSTVLRGRLYAIAGY [A11S] showed a protein stability index of 1.04. Work on SMTTPRCYVGQTVLRGRLYAIAGY [A11Q] yielded a protein stability index of 2.32. In the case of SMTTPRCYVGNTVLRGRLYAIAGY [A11N], the protein stability index is reported as 1.5. Work on SMTTPRCYVGFTVLRGRLYAIAGY [A11F] yielded a protein stability index of 2.01. Variant SMTTPRCYVGKTVLRGRLYAIAGY [A11K] has a protein stability index of 2.19. For SMTTPRCYVGTTVLRGRLYAIAGY [A11T], the protein stability index was 1.49. Work on SMTTPRCYVGCTVLRGRLYAIAGY [A11C] yielded a protein stability index of 2.29. SMTTPRCYVGMTVLRGRLYAIAGY [A11M] showed a protein stability index of 2. In the case of SMTTPRCYVGHTVLRGRLYAIAGY [A11H], the protein stability index is reported as 1.8. In the case of SMTTPRCYVGRTVLRGRLYAIAGY [A11R], the protein stability index is reported as 3.02. Work on SMTTPRCYVGYTVLRGRLYAIAGY [A11Y] yielded a protein stability index of 2.99. For SMNTPRCYVGATVLRGRLYAIAGY [T3N], the protein stability index was 1.46. With SMATPRCYVGATVLRGRLYAIAGY [T3A] the protein stability index was 2.97. Work on SMPTPRCYVGATVLRGRLYAIAGY [T3P] yielded a protein stability index of 1.59. In the case of SMQTPRCYVGATVLRGRLYAIAGY [T3Q], the protein stability index is reported as 2.67. Variant SMFTPRCYVGATVLRGRLYAIAGY [T3F] has a protein stability index of 1.62. In the case of SMLTPRCYVGATVLRGRLYAIAGY [T3L], the protein stability index is reported as 2.72. Work on SMETPRCYVGATVLRGRLYAIAGY [T3E] yielded a protein stability index of 1.65. For SMSTPRCYVGATVLRGRLYAIAGY [T3S], the protein stability index was 2.31. SMCTPRCYVGATVLRGRLYAIAGY [T3C] gave a protein stability index of 2.75. Variant SMVTPRCYVGATVLRGRLYAIAGY [T3V] has a protein stability index of 2.36. SMITPRCYVGATVLRGRLYAIAGY [T3I] showed a protein stability index of 1.02. With SMHTPRCYVGATVLRGRLYAIAGY [T3H] the protein stability index was 2.34. Variant SMMTPRCYVGATVLRGRLYAIAGY [T3M] has a protein stability index of 1.99. SMKTPRCYVGATVLRGRLYAIAGY [T3K] showed a protein stability index of 2.08. With SMYTPRCYVGATVLRGRLYAIAGY [T3Y] the protein stability index was 1.62. SMTTPRCYVGAAVLRGRLYAIAGY [T12A] showed a protein stability index of 1.68. SNTTPRCYVGATVLRGRLYAIAGY [M2N] showed a protein stability index of 2.96. SETTPRCYVGATVLRGRLYAIAGY [M2E] gave a protein stability index of 1.68. For SATTPRCYVGATVLRGRLYAIAGY [M2A], the protein stability index was 2.19. SLTTPRCYVGATVLRGRLYAIAGY [M2L] gave a protein stability index of 2.64. SITTPRCYVGATVLRGRLYAIAGY [M2I] gave a protein stability index of 1.65. SPTTPRCYVGATVLRGRLYAIAGY [M2P] gave a protein stability index of 1.33. Variant SYTTPRCYVGATVLRGRLYAIAGY [M2Y] has a protein stability index of 2.77. SRTTPRCYVGATVLRGRLYAIAGY [M2R] showed a protein stability index of 2.35. For SVTTPRCYVGATVLRGRLYAIAGY [M2V], the protein stability index was 1.97. In the case of STTTPRCYVGATVLRGRLYAIAGY [M2T], the protein stability index is reported as 2.22. For SGTTPRCYVGATVLRGRLYAIAGY [M2G], the protein stability index was 2.78. In the case of SQTTPRCYVGATVLRGRLYAIAGY [M2Q], the protein stability index is reported as 1.48. With SSTTPRCYVGATVLRGRLYAIAGY [M2S] the protein stability index was 3.02. SFTTPRCYVGATVLRGRLYAIAGY [M2F] showed a protein stability index of 3.06. With SDTTPRCYVGATVLRGRLYAIAGY [M2D] the protein stability index was 2.48. Variant SHTTPRCYVGATVLRGRLYAIAGY [M2H] has a protein stability index of 1.93.
